One may read the stoichiometry N as the number of molecules, sites or subunits per partner or assembly.

Experimental findings from PMC10270636 are described below.

What all share (experiment): SEC; TSK-Gel G2000SWXL 7.8 x 300 mm column, Waters Alliance HPLC, detection at 220 nm; lyophilizate dissolved in water for injection and diluted, measured directly; peaks assigned as aggregates, tetramer and monomer
One data set deals with P00805.
The target of data set [1] is Spectrila (recombinant E. coli-derived L-asparaginase) (E. coli), P00805.
In data set [2] the target is Onconase (E. coli-derived L-asparaginase preparation from India) (E. coli), P00805.

Regarding “Onconase (E. coli-derived L-asparaginase preparation from India)”, in the data set on P00805, the “percent tetramer (SEC peak area)” value turned out to be 82.7%[*].
Consider “Spectrila (recombinant E. coli-derived L-asparaginase)”, for which, in the data set on P00805, the “percent tetramer (SEC peak area)” value is reported as 99.4%.

B1: Spectrila (recombinant E. coli-derived L-asparaginase), P00805 23-348 (enzyme)
chain: LPNITILATGGTIAGGGDSATKSNYTVGKVGVENLVNAVPQLKDIANVKGEQVVNIGSQDMNDDVWLTLAKKINTDCDKTDGFVITHGTDTMEETAYFLDLTVKCDKPVVMVGAMRPSTSMSADGPFNLYNAVVTAADKASANRGVLVVMNDTVLDGRDVTKTNTTDVATFKSVNYGPLGYIHNGKIDYQRTPARKHTSDTPFDVSKLNELPKVGIVYNYANASDLPAKALVDAGYDGIVSAGVGNGNLYKTVFDTLATAAKTGTAVVRSSRVPTGATTQDAEVDDAKYGFVASGTLNPQKARVLLQLALTQTKDPQQIQQIFNQY
modifications: not checked
With B1, the stoichiometry N in data set [1] turned out to be 4.

B2: Onconase (E. coli-derived L-asparaginase preparation from India), P00805 23-348 (enzyme)
chain: B1 chain
modifications: not checked
B2 returned a stoichiometry N in data set [2] of 4.
